Molecular target: YEATS domain of human YEATS2 (aa 201-332), tag removed (human) (UniProt Q9ULM3)
Assay: ITC; YEATS2_(201-332) titrated with histone peptides, 15 C, 20 mM Tris 7.5, 0.5 M sodium citrate, 5% glycerol, 2 mM beta-mercaptoethanol; one set of binding sites model

Sequence of histone H3 P30A mutant peptide (peptide; modification not given) (chain, as listed by the source P30A): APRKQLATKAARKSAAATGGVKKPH
Sequence of YEATS domain of human YEATS2 (aa 201-332), tag removed (human) (Q9ULM3 201-332): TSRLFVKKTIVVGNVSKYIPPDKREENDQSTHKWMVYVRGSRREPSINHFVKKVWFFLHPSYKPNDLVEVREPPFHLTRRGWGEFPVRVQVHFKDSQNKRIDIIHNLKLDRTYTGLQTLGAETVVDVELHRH

fold drop against the wild-type H3K27ac peptide: 2 fold
Substance: histone H3 P30A mutant peptide (peptide; modification not given)

From publication PMC5651844, “YEATS2 links histone acetylation to tumorigenesis of non-small cell lung cancer” (Nature Communications, 2017)
